Source: patent US20060084596A1 (UNIVERSITY OF SOUTH FLORIDA, published 2006)
Several values for one entry are separate records, joined by “and”; a condition that tells them apart may be missing. Equal entries are not always repeated. Where two headings read alike, the source gives them in different places. Positions of bridges follow the written chain, without caps; N, C: chain ends. Non-standard residues stand in square brackets, D forms with d.

B1: GFB-112 (designed binder)
peptide: ADGD
modifications: linker N-C via 3‑aminomethyl‑5‑aminobenzamide; also: four loops on But-Calix calix[4]arene scaffold
B2: GFB-115 (designed binder)
peptide: GKGF
modifications: linker N-C via 3‑aminomethyl‑5‑aminobenzamide; also: four loops on But-Calix scaffold
B3: GFB-105 (designed binder)
peptide: GDFD
modifications: linker N-C via 3‑aminomethyl‑5‑aminobenzamide; also: four loops on But-Calix calix[4]arene scaffold
B4: GFB-102 (designed binder)
peptide: GDFD
modifications: linker N-C via 3‑aminomethyl‑5‑aminobenzamide; also: four loops on O4-Calix calix[4]arene scaffold
B5: GFB-101 (designed binder)
peptide: GFGD
modifications: linker N-C via 3‑aminomethyl‑5‑aminobenzamide; also: four loops on O4-Calix calix[4]arene scaffold
B6: GFB-106 (designed binder)
peptide: GDDD
modifications: linker N-C via 3‑aminomethyl‑5‑aminobenzamide; also: four loops on But-Calix calix[4]arene scaffold
B7: GFB-108 (designed binder)
peptide: [dA]DGD
modifications: linker N-C via 3‑aminomethyl‑5‑aminobenzamide; also: four loops on But-Calix calix[4]arene scaffold
B8: GFB-107 (designed binder)
peptide: GDGD
modifications: linker N-C via 3‑aminomethyl‑5‑aminobenzamide; also: four loops on But-Calix calix[4]arene scaffold
B9: GFB-113 (designed binder)
peptide: GDSD
modifications: linker N-C via 3‑aminomethyl‑5‑aminobenzamide; also: four loops on But-Calix calix[4]arene scaffold
B10: GFB-116 (designed binder)
peptide: GKGK
modifications: linker N-C via 3‑aminomethyl‑5‑aminobenzamide; also: four loops on But-Calix scaffold
B11: GFB-111 (designed binder)
peptide: GDGY
modifications: linker N-C via 3‑aminomethyl‑5‑aminobenzamide; also: four loops on But-Calix calix[4]arene scaffold

Legend:
[1] = molecular target: insulin-like growth factor-1 (IGF-1) (UniProt P05019 49-118); experiment: cell-based or functional assay
[2] = molecular target: T1, vascular endothelial growth factor (VEGF) (UniProt P15692-4 27-191, limits assumed); experiment: cell-based or functional assay
[3] = molecular target: acidic fibroblast growth factor (aFGF) (UniProt P05230 16-155, limits assumed); experiment: cell-based or functional assay
[4] = molecular target: T2, platelet derived growth factor PDGF-BB (UniProt P01127 82-190); experiment: cell-based or functional assay
[5] = molecular target: T2, platelet derived growth factor PDGF-BB; experiment: cell-based or functional assay; remark: listed apart in the source
[6] = molecular target: T2, platelet derived growth factor PDGF-BB; experiment: cell-based or functional assay; remark: listed apart in the source
[7] = molecular target: T1, vascular endothelial growth factor …; experiment: cell-based or functional assay; remark: listed apart in the source
[8] = molecular target: insulin-like growth factor-1 (IGF-1) (UniProt P05019); experiment: cell-based or functional assay
[9] = molecular target: T1, vascular endothelial growth factor …; experiment: cell-based or functional assay; remark: listed apart in the source
[10] = molecular target: T1, vascular endothelial growth factor …; experiment: inhibition of [125I]-VEGF binding to NIH 3T3 cells overexpressing Flk-1, GFB-111 10 µM
[11] = molecular target: T2, platelet derived growth factor PDGF-BB; experiment: inhibition of [125I]-PDGF-BB binding to NIH 3T3 cells (PDGFR), 4 °C

Chain of acidic fibroblast growth factor (aFGF) (P05230 16-155 limits assumed): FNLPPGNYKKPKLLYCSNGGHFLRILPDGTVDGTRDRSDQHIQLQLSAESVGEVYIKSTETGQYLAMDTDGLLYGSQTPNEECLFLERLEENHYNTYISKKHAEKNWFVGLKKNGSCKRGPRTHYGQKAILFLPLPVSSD
Chain of insulin-like growth factor-1 (IGF-1) (UniProt P05019) (P05019 49-118 limits assumed): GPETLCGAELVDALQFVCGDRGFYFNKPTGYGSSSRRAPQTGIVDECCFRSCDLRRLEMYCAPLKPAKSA
Chain of insulin-like growth factor-1 (IGF-1) (UniProt P05019 49-118) (P05019 49-118 limits assumed): as above
T1 sequence (P15692 other isoform, or with tags, fused parts or gaps limits assumed): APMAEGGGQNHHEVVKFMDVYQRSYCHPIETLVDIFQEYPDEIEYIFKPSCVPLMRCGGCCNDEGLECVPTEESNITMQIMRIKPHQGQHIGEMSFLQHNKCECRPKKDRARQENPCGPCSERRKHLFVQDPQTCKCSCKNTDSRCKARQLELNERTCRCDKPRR
T2 sequence (P01127 82-190 limits assumed): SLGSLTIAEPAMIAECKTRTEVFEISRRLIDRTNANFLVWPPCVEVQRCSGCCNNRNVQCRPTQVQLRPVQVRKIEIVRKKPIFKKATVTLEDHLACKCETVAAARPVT

Binder | % Inhibition at 100 µM, IGF1R-Y-P [1] [%] | % Inhibition at 100 µM, p42 [1] [%] | % Inhibition at 100 µM, p44 [1] [%] | IC50, Flk-1-Y-P [2] [µM] | IC50, p42 [2] | IC50, p44 [2] | (IC50) Inhibition, p42 [3] | (IC50) Inhibition, p44 [3] | IC50, PDGFR-Y-P [4] [µM] | IC50, p42/Erk2 [4] [µM] | further results
B1 | 0.6 | -7.6 | 30.4 | < 10 | 10 µM | 10 µM | 59.7 µM per head; likely % and 40.2 µM per head; likely % | 62.9 µM per head; likely % and 39.6 µM per head; likely % | 29 | 26 | –
B2 | -38.3 | -12.4 | 51.9 | – | 5 µM and 10 µM | 5 µM and 10 µM | -21 µM per head; likely % | -23.9 µM per head; likely % | > 50 | > 50 | IC50, PDGF-BB-stimulated PDGF receptor tyrosine autophosphorylation [5]: 50 µM
B3 | 1.3 | – | – | – | > 100 µM | > 100 µM | 66.4 µM per head; likely % | 75.7 µM per head; likely % | – | – | –
B4 | – | – | – | – | > 100 µM | > 100 µM | – | – | – | – | –
B5 | – | – | – | > 100 | > 100 µM | > 100 µM | – | – | > 500 | > 500 | –
B6 | – | – | – | < 10 | < 10 µM | < 10 µM | – | – | 8 | 33 | –
B7 | – | 67.8 | 80.1 | 10 | 50 µM | 50 µM | 67.8 µM per head; likely % | 80.1 µM per head; likely % | 9 | 57 | –
B8 | – | – | – | < 10 | 100 µM | 100 µM | – | – | – | – | –
B9 | -18.9 | -31.4 | 18.7 | < 10 | 10 µM | 10 µM | 53.6 µM per head; likely % | 64.3 µM per head; likely % | 2.8 | 30 | –
B10 | – | – | – | 0.3 | 5 µM | 5 µM | 99.2 µM per head; likely % and 99.6 µM per head; likely % and 102 µM per head; likely % and 99.7 µM per head; likely % | 97.5 µM per head; likely % and 97.2 µM per head; likely % and 116 µM per head; likely % and 99.9 µM per head; likely % | – | – | IC50, PDGFR-Y-P [6]: 40 µM; IC50, p42/Erk2 [6]: 28 µM; (IC50) Inhibition, p42 (mean) [3]: 100 µM per head; likely %; (IC50) Inhibition, p44 (mean) [3]: 103 µM per head; likely %; IC50, VEGF-stimulated flk-1 tyrosine phosphorylation [7]: 3000 µM
B11 | – | – | – | – | – | – | – | 68 µM per head; likely % and 51.8 µM per head; likely % | – | – | % Inhibition at 100 µM, IGF1R-Y-P [8]: -12.4%; % Inhibition at 100 µM, p42 [8]: -18.4%; % Inhibition at 100 µM, p44 [8]: 10.7%; IC50, Flk-1-Y-P [9]: 5 µM; IC50, VEGF-stimulated Flk-1 tyrosine phosphorylation and MAPK activation [9]: 10 µM; IC50, p42 [9]: 10 µM; IC50, p44 [9]: 10 µM; IC50, PDGF-BB stimulated DNA synthesis ([3H]-thymidine incorporation) [6]: 6.5 µM; IC50, PDGF-dependent activation of Erk1 [6]: 0.8 µM; IC50, PDGF-dependent activation of Erk2 [6]: 1.2 µM; IC50, PDGFR-Y-P [6]: 0.25 µM; IC50, p42/Erk2 [6]: 2.6 µM; PDGF-BB stimulation of receptor tyrosine phosphorylation, complete block [6]: 3 µM; inhibition of [125I]-VEGF binding at 10 µM GFB-111 [10]: 50%; IC50 [11]: 0.25 µM
